Results taken from patent US20190359662A1.

Assays:
Test in all cases: cell-based or functional assay
hNav1.1 (human) = hNav1.1 (human) (UniProt P35498)
hNav1.2 (human) = hNav1.2 (human) (UniProt Q99250)
hNav1.3 (human) = hNav1.3 (human) (UniProt Q9NY46)
hNav1.4 (human) = hNav1.4 (human) (UniProt P35499)
hNav1.5 (human) = hNav1.5 (human) (UniProt Q14524)
hNav1.6 (human) = hNav1.6 (human) (UniProt Q9UQD0)
hNav1.7 (human) = hNav1.7 (human) (UniProt Q15858)
hNav1.8 (human) = hNav1.8 (human) (UniProt Q9Y5Y9)
Chain of hNav1.8 (human) (Q9Y5Y9 whole entry): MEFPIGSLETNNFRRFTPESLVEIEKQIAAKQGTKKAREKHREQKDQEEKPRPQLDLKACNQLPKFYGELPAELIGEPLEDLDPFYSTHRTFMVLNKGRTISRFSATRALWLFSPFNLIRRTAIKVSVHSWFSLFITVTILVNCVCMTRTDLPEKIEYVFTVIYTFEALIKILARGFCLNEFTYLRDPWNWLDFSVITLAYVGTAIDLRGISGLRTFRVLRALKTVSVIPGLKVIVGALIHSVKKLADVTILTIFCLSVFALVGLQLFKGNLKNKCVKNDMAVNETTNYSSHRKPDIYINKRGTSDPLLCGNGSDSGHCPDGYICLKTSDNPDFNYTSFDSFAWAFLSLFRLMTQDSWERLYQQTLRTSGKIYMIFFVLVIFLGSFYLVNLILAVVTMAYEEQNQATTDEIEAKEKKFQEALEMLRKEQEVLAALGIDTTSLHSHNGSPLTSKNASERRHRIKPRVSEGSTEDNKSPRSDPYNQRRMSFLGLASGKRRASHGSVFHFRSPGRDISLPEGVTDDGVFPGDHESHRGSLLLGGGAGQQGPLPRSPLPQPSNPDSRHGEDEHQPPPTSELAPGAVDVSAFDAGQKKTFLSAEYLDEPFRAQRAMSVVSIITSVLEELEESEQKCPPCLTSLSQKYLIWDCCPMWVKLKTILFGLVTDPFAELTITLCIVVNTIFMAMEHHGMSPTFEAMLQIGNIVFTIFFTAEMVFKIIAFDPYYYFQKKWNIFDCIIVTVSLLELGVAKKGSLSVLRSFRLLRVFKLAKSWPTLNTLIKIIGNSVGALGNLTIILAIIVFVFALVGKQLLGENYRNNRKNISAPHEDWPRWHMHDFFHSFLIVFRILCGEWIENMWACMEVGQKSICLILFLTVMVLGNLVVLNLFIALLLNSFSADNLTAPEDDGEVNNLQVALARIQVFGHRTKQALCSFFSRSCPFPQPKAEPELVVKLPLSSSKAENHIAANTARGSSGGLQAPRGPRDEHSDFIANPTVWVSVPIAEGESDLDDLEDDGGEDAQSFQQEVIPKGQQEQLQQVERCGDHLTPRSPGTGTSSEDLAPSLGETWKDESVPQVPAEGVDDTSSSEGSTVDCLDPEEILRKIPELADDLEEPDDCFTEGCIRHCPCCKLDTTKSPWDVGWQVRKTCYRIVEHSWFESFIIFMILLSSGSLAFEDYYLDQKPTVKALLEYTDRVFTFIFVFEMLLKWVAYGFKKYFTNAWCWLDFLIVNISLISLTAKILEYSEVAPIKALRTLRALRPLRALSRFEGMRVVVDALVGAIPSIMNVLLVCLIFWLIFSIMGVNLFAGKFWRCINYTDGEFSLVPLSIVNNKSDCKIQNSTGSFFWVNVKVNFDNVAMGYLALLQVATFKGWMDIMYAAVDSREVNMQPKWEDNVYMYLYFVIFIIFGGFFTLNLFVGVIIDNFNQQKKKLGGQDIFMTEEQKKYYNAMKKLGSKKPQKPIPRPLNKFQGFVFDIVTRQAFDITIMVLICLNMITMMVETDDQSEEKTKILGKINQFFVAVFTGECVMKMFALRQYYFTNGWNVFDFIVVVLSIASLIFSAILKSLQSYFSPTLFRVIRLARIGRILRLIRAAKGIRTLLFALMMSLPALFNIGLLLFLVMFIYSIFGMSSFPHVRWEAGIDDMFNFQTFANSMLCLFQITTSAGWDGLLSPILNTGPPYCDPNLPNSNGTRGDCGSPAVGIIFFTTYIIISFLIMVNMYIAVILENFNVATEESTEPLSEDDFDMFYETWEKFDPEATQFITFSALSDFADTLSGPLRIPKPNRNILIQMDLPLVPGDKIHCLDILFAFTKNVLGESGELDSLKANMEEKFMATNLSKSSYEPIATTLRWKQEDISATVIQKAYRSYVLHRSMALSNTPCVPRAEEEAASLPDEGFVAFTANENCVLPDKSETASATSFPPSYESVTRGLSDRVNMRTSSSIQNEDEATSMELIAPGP

hNav1.9 (human) = hNav1.9 (human) (UniProt Q9UI33)

Chain of hNav1.4 (human) (P35499 whole entry): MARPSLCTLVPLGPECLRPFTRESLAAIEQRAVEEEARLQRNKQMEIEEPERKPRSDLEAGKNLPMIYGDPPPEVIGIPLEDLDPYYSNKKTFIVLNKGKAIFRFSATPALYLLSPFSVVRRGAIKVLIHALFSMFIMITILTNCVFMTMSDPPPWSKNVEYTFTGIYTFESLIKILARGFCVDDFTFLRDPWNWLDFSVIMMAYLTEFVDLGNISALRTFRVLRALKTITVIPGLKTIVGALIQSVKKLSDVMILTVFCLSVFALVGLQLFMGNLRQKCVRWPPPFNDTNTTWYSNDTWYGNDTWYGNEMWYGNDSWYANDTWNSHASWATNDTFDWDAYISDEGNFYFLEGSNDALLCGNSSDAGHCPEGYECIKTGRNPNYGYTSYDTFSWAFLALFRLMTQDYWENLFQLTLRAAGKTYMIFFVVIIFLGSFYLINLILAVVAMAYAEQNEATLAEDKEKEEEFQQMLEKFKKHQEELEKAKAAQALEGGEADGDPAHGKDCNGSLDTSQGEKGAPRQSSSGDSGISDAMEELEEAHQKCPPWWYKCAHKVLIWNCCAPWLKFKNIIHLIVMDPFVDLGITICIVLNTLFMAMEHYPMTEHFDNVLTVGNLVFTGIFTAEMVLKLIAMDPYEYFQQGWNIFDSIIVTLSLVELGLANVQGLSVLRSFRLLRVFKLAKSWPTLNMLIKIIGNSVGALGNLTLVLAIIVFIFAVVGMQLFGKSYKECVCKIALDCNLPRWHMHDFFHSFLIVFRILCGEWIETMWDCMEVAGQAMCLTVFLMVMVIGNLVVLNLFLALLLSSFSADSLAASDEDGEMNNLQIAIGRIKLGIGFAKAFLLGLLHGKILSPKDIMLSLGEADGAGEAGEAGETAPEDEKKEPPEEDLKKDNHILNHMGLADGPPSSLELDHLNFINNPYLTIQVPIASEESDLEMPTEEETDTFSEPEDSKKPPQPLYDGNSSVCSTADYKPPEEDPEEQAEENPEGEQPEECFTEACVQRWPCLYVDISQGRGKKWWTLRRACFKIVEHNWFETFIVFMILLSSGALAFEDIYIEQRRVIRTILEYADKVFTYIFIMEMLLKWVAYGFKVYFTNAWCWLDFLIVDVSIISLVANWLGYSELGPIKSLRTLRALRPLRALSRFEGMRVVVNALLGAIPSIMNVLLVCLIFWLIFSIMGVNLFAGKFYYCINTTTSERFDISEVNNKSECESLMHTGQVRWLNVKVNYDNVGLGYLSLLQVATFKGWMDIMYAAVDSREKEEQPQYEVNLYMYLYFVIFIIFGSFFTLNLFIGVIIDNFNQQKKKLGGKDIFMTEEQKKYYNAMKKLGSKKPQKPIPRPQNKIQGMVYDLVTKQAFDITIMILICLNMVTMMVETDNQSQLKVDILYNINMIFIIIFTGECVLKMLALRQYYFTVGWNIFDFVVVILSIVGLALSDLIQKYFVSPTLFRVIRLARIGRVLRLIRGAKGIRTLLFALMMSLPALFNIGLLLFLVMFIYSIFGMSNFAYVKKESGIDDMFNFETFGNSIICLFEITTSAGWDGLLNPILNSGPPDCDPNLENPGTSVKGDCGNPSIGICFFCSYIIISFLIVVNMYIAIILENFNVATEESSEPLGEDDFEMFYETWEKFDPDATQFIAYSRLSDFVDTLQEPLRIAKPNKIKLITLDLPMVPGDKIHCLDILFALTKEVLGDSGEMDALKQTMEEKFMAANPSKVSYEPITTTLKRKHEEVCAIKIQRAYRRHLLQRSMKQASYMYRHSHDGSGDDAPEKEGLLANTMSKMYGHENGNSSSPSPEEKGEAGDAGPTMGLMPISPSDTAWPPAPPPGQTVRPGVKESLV

Pnc1a (peptide) showed a pIC50, automated patch clamp (hNav1.1 (human)) of 7.43 M, a pIC50, membrane potential assay (hNav1.1 (human)) of 4.88 M and a pIC50, automated patch clamp (hNav1.2 (human)) of 6.9 M. For the same substance, the pIC50, membrane potential assay (hNav1.2 (human)) was 5.53 M, the pIC50, automated patch clamp (hNav1.3 (human)) was 6.68 M and the pIC50, membrane potential assay (hNav1.3 (human)) was 5.09 M. It also gave a pIC50, automated patch clamp (hNav1.4 (human)) of 6.8 M, a pIC50, membrane potential assay (hNav1.4 (human)) of 4.95 M and a pIC50, automated patch clamp (hNav1.5 (human)) of 6.01 M. For the same substance, the pIC50, membrane potential assay (hNav1.5 (human)) was 4.07 M, the pIC50, automated patch clamp (hNav1.6 (human)) was 6.89 M and the pIC50, membrane potential assay (hNav1.6 (human)) was 4.73 M. The pIC50, automated patch clamp (hNav1.7 (human)) was > 9.04 M, the pIC50, automated patch clamp (hNav1.8 (human)) was 4.32 M and the pIC50, membrane potential assay (hNav1.8 (human)) was 4.58 M. For the same substance, the pIC50, automated patch clamp (hNav1.9 (human)) was 5.63 M.
